Reference: patent publication US20260265372A1 (TECHNION RESEARCH AND DEVELOPMENT FOUNDATION, published 2026)

Columns and labels:
D2 domain of human LAG-3 = molecular target: T1, D2 domain of human LAG-3 (human, UniProt P18627 169-260); test: not described
T1 sequence: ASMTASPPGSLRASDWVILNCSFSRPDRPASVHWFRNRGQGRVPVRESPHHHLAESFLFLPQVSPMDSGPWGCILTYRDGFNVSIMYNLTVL

[1] = molecular target: HA glycoprotein of A/Puerto Rico/8/1934 (H1N1) influenza virus, purified (influenza virus A/Puerto Rico/8/1934 …, UniProt P03452 18-528); test: ELISA, plate coated with the fusion protein

B1: 23DKTYB4 (antibody, V domains shown)
VH: QVQLKQSDDELVKPGASVKISCKVSGYTFTDHTIHWMKQRPEQGLEWIGYIYPRDGSTKYNEKFKGKATLTADKSSSTAYMQLNSLTSEDSAVYFCARRRSYYGSSFYFDVWGTGTTVSV
VL: DIQMTQSTSSLSASLGDRVTISCRASQDISNYLNWYQQKPDGTVKLLIYYTSRLHSGVPSRFSGSGSGTDYSLTISNLEQEDIATYFCQQGNTLPWTFGGGTK
D2 domain of human LAG-3
  binding result: binds

B2: 23DKTYB19 (antibody, V domains shown)
VH: QVQLKQSDAELVKPGASVKISCKVSGYTFTDHTIHWMKQRPEQGLEWIGYIYPRDGSTKYNEKFKGKATLTADKSSSTAYMQLNSLTSEDSAVCFCARTGSYAMDYWGQGTSVTVSS
VL: DIVMTQSPASLAVSLGQRATISCKASQSVDYDGDSYMNWYQQKPGQPPKLLIYAASNLESGIPARFSGSGSGTDFTLNIHPVEEEDAATYYCQQSNEDPYTFGG
D2 domain of human LAG-3
  binding result: binds

B3: KIR2DL1 fused to the IgG1 Fc domain (Fc fusion)
chain: HEGVHRKPSLLAHPGRLVKSEETVILQCWSDVMFEHFLLHREGMFNDTLRLIGEHHDGVSKANFSISRMTQDLAGTYRCYGSVTHSPYQVSAPSDPLDIVIIGLYEKPSLSAQLGPTVLAGENVTLSCSSRSSYDMYHLSREGEAHERRLPAGPKVNGTFQADFPLGPATHGGTYRCFGSFHDSPYEWSKSSDPLLVSVTGNPSNSWPSPTEPSSKTGNPRHLH
[1]
  binding result: no binding
